Experimental findings from patent publication US20060058231A1 are described below.

Holding throughout (test): ELISA-like plate assay, captured BMP-7 from conditioned media, receptor-Fc detection
In general terms: In an ELISA, binding on a coated surface is turned into a signal by an enzyme label.

In assay [1] the target is T1, BMPRIb receptor-Fc fusion (UniProt O00238).
T1 sequence (looked up): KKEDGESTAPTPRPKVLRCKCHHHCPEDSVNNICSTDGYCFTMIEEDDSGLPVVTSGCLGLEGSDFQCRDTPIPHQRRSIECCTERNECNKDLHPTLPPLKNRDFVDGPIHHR

The target of assay [2] is T2, BMPRII receptor-Fc fusion (UniProt Q13873).
T2 sequence (looked up): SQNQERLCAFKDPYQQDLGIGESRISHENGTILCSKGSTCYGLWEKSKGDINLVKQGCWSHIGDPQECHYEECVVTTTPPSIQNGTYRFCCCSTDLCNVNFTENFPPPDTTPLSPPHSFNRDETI

Assay [3] concerns the target ActRIIa receptor-Fc fusion (UniProt P27037).
Assay [4] concerns the target BMPRIa receptor-Fc fusion (UniProt P36894).

ActRIIa receptor-Fc fusion, sequence (P27037 20-134 limits assumed): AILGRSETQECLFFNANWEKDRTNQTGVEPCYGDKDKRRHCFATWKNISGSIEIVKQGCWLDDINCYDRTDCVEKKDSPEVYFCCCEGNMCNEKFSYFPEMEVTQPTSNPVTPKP
BMPRIa receptor-Fc fusion, sequence (P36894 24-152 limits assumed): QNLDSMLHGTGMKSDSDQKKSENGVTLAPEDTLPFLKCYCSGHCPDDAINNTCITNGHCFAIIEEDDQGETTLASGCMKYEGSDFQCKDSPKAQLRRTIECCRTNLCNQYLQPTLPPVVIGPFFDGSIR

Turning to “BMP-7 variant R48E (from UniProt P18075 293-431 at identity 0.99)) (ligand)”, the BMPRIb binding (relative to wild type = 1.0) (relative to wild type) in assay [1] was -0.51. Besides, in assay [2], the BMPRII binding (relative to wild type = 1.0) (relative to wild type) is -0.13. In turn, “BMP-7 variant L21E (from UniProt P18075 293-431 at identity 0.99)) (ligand)” showed a BMPRII binding (relative to wild type = 1.0) (relative to wild type) in assay [2] of 0.07. On the same count and under the same terms, in the case of “BMP-7 variant F93A (from UniProt P18075 293-431 at identity 0.99)) (ligand)” it was 0.09. On the same count and under the same terms, then “BMP-7 variant S77H (from UniProt P18075 293-431 at identity 0.99)) (ligand)”, with 0.08. In assay [3], “BMP-7 variant L115A (from UniProt P18075 293-431 at identity 0.99)) (ligand)” registered an ActRIIa binding (relative to wild type = 1.0) (relative to wild type) of 0.01. This substance also came in with a BMPRII binding (relative to wild type = 1.0) (relative to wild type) in assay [2] of -0.01. Moreover, the BMPRIa binding (relative to wild type = 1.0) (relative to wild type) in assay [4] is -0.02. On to “BMP-7 variant W55A (from UniProt P18075 293-431 at identity 0.99)) (ligand)”, for which the ActRIIa binding (relative to wild type = 1.0) (relative to wild type) in assay [3] was 0.09. In addition, the BMPRII binding (relative to wild type = 1.0) (relative to wild type) in assay [2] was determined as 0.03.

Turning to “BMP-7 variant F117S (from UniProt P18075 293-431 at identity 0.99)) (ligand)”, the BMPRIb binding (relative to wild type = 1.0) (relative to wild type) in assay [1] was -0.08. Besides, the BMPRII binding (relative to wild type = 1.0) (relative to wild type) in assay [2] is -0.04. As to “BMP-7 variant W52P (from UniProt P18075 293-431 at identity 0.99)) (ligand)”, the ActRIIa binding (relative to wild type = 1.0) (relative to wild type) in assay [3] came out at 0.07. This substance displayed a BMPRII binding (relative to wild type = 1.0) (relative to wild type) in assay [2] of 0.01. In addition, the BMPRIa binding (relative to wild type = 1.0) (relative to wild type) in assay [4] turned out to be 0.03.
